Reference: the supplement of paper PMC10724198
± gives the standard deviation of the averaged measurements.

Columns and labels:
[1] = test system: Saccharomyces cerevisiae; assay: protein stability index of tFT-peptide fusion (C-terminal peptide) (PSI (0-1 scale)); higher = more stable (slower turnover); conditions: genetic background: wild type; temperature: 30 C
[2] = test system: Saccharomyces cerevisiae; assay: as above
Protocol: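 MPS profiling in S. cerevisiae of the tFT-X12 degron library: putative degron peptides plus stable controls, 12 aa, fused to the C-terminus of a sfGFP-mCherry timer. Cells are FACS-sorted into 8 mCherry/sfGFP bins and deep-sequenced. PSI runs from 0 (unstable) to 1 (stable). Backgrounds are wild type, das1Δ and doa10Δ at 30 °C, and wild type, das1Δ, cdc34-1 and cdc53-1 at 37 °C; 2-3 technical replicates each.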

[3] = genetic background: cdc34-1, temperature: 37 C
[4] = genetic background: cdc53-1, temperature: 37 C
[5] = genetic background: das1 deletion, temperature: 30 C
[6] = genetic background: das1 deletion, temperature: 37 C
[7] = genetic background: doa10 deletion, temperature: 30 C
[8] = genetic background: wild type, temperature: 30 C
[9] = genetic background: wild type, temperature: 37 C
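Further: PSI is a weighted mean of sequencing reads over stability bins, variants kept only with over 10 reads, mCherry proximal and sfGFP distal, peptide attached via GGGS linker.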

Row | Sequence | protein stability index [1] | protein stability index [2, 3] | protein stability index [2, 4] | protein stability index [2, 5] | protein stability index [2, 6] | protein stability index [2, 7] | protein stability index [2, 8] | protein stability index [2, 9]
1 | PHFDLLLCLSLN | 0.366 ± 0.0045 | 0.625 ± 0.026 | 0.753 ± 0.057 | 0.676 ± 0.049 | 0.718 ± 0.018 | 0.248 ± 0.032 | 0.257 ± 0.033 | 0.521 ± 0.016
2 | PHLDLYRLSALI | 0.47 ± 0.0056 | 0.705 ± 0.01 | 0.751 ± 0.016 | 0.668 ± 0.032 | 0.79 ± 0.012 | 0.329 ± 0.031 | 0.366 ± 0.021 | 0.57 ± 0.021
3 | PHPPRPPCPPIL | 0.74 ± 0.019 | 0.673 ± 0.041 | 0.736 ± 0.015 | 0.674 ± 0.0068 | 0.721 ± 0.0074 | 0.699 ± 0.037 | 0.678 ± 0.015 | 0.699 ± 0.0093
4 | PHVSALSRDPES | 0.716 ± 0.018 | 0.698 ± 0.038 | 0.728 ± 0.0092 | 0.649 ± 0.021 | 0.7247 ± 0.0027 | 0.65 ± 0.025 | 0.662 ± 0.017 | 0.701 ± 0.016
5 | PISNMSIILLFL | 0.48 ± 0.04 | 0.495 ± 0.072 | 0.595 ± 0.043 | 0.439 ± 0.028 | 0.593 ± 0.016 | 0.378 ± 0.018 | 0.391 ± 0.015 | 0.556 ± 0.027
6 | PLFFGVQAFGGV | 0.7335 ± 0.0045 | 0.727 ± 0.026 | 0.79052 ± 0.0004 | 0.664 ± 0.029 | 0.7644 ± 0.0042 | 0.669 ± 0.033 | 0.679 ± 0.014 | 0.7622 ± 0.0021
7 | PLPCFVLRLPVF | 0.402 ± 0.02 | 0.39 ± 0.037 | 0.429 ± 0.033 | 0.298 ± 0.031 | 0.465 ± 0.0064 | 0.267 ± 0.011 | 0.304 ± 0.024 | 0.4379 ± 0.0024
8 | PLPSEKAPTLLL | 0.583 ± 0.15 | 0.686 ± 0.019 | 0.735 ± 0.01 | 0.637 ± 0.0092 | 0.736 ± 0.036 | 0.636 ± 0.027 | 0.6384 ± 0.0045 | 0.718 ± 0.0072
9 | PLPSFLYFILLR | 0.44 ± 0.079 | 0.22 ± 0.062 | 0.196 ± 0.024 | 0.333 ± 0.03 | 0.396 ± 0.024 | 0.524 ± 0.035 | 0.357 ± 0.012 | 0.359 ± 0.044
10 | PLRKYLRHLLSL | 0.218 ± 0.055 | 0.59822 ± 0.00032 | 0.7453 ± 0.0022 | 0.647 ± 0.022 | 0.735 ± 0.036 | 0.1635 ± 0.0013 | 0.159 ± 0.012 | 0.285 ± 0.0041
11 | PLRRPPPRPPWP | 0.494 ± 0.036 | 0.65 ± 0.025 | 0.7054 ± 0.0032 | 0.674 ± 0.024 | 0.7032 ± 0.003 | 0.69 ± 0.03 | 0.644 ± 0.025 | 0.687 ± 0.011
12 | PLSPTNLSRLLS | 0.339 ± 0.015 | 0.658 ± 0.034 | 0.7642 ± 0.0043 | 0.651 ± 0.012 | 0.744 ± 0.0077 | 0.1987 ± 0.0011 | 0.234 ± 0.037 | 0.526 ± 0.033
13 | PPGSPPGSLRPT | 0.78 ± 0.025 | 0.67 ± 0.038 | 0.715 ± 0.027 | 0.664 ± 0.026 | 0.713 ± 0.013 | 0.662 ± 0.029 | 0.665 ± 0.036 | 0.703 ± 0.013
14 | PPHRTLLQLRTN | 0.343 ± 0.18 | 0.599 ± 0.072 | 0.728 ± 0.035 | 0.661 ± 0.022 | 0.727 ± 0.0085 | 0.169 ± 0.021 | 0.164 ± 0.02 | 0.313 ± 0.015
15 | PPPAPPLSMPAP | 0.0173 ± 0.0038 | 0.647 ± 0.064 | 0.73 ± 0.027 | 0.665 ± 0.014 | 0.718 ± 0.026 | 0.671 ± 0.021 | 0.681 ± 0.022 | 0.6928 ± 0.0055
16 | PPPLCSTCIRCC | 0.293 ± 0.0083 | 0.197 ± 0.035 | 0.206 ± 0.038 | 0.224 ± 0.027 | 0.354 ± 0.0097 | 0.175 ± 0.0021 | 0.205 ± 0.019 | 0.274 ± 0.013
17 | PPQDQAPVGVND | 0.474 ± 0.064 | 0.672 ± 0.041 | 0.7509 ± 0.0024 | 0.619 ± 0.019 | 0.74 ± 0.0071 | 0.623 ± 0.03 | 0.644 ± 0.038 | 0.7007 ± 0.0022
18 | PPRCLLPPPSRS | 0.79 ± 0.015 | 0.652 ± 0.034 | 0.699 ± 0.014 | 0.694 ± 0.015 | 0.693 ± 0.0092 | 0.72 ± 0.05 | 0.692 ± 0.012 | 0.678 ± 0.009
19 | PPRDPGGLFTPF | 0.71756 ± 0.00059 | 0.732 ± 0.017 | 0.7854 ± 0.0062 | 0.679 ± 0.0077 | 0.7763 ± 0.003 | 0.703 ± 0.022 | 0.674 ± 0.028 | 0.767 ± 0.039
20 | PPSPAPLPDSLP | 0.7006 ± 0.0066 | 0.662 ± 0.036 | 0.6995 ± 0.0011 | 0.684 ± 0.038 | 0.715 ± 0.017 | 0.693 ± 0.015 | 0.691 ± 0.021 | 0.696 ± 0.0075
21 | PPSPPLLFHFPP | 0.586 ± 0.15 | 0.669 ± 0.049 | 0.756 ± 0.013 | 0.661 ± 0.0077 | 0.7367 ± 0.005 | 0.661 ± 0.022 | 0.658 ± 0.018 | 0.7058 ± 0.007
22 | PPTLLPPLHPAP | 0.64 ± 0.23 | 0.681 ± 0.056 | 0.725 ± 0.0045 | 0.663 ± 0.011 | 0.7217 ± 0.005 | 0.666 ± 0.028 | 0.688 ± 0.038 | 0.731 ± 0.023
23 | PTLPASLHSIYP | 0.768 ± 0.024 | 0.654 ± 0.03 | 0.72 ± 0.031 | 0.684 ± 0.028 | 0.698 ± 0.021 | 0.687 ± 0.03 | 0.6731 ± 0.0056 | 0.6917 ± 0.0027
24 | PTYSCSIKIQAH | 0.427 ± 0.031 | 0.539 ± 0.037 | 0.537 ± 0.037 | 0.407 ± 0.03 | 0.5503 ± 0.0049 | 0.339 ± 0.01 | 0.366 ± 0.022 | 0.517 ± 0.02
25 | PWGSHLYYVVCI | 0.339 ± 0.023 | 0.168 ± 0.026 | 0.228 ± 0.011 | 0.238 ± 0.03 | 0.3371 ± 0.0028 | 0.183 ± 0.013 | 0.221 ± 0.035 | 0.315 ± 0.016
26 | PWWDALLRARVC | 0.163 ± 0.025 | 0.429 ± 0.033 | 0.6 ± 0.054 | 0.435 ± 0.021 | 0.625 ± 0.019 | 0.103 ± 0.013 | 0.115 ± 0.022 | 0.159 ± 0.0039
27 | PYVHPFRCYWVL | 0.193 ± 0.029 | 0.589 ± 0.032 | 0.717 ± 0.027 | 0.621 ± 0.02 | 0.7396 ± 0.0015 | 0.128 ± 0.01 | 0.138 ± 0.0077 | 0.181 ± 0.016
28 | QCSPGLPHAQGL | 0.565 ± 0.15 | 0.692 ± 0.025 | 0.71 ± 0.015 | 0.634 ± 0.024 | 0.733 ± 0.014 | 0.657 ± 0.028 | 0.666 ± 0.039 | 0.708 ± 0.013
29 | QGPHISQYRTHR | 0.706 ± 0.0037 | 0.67 ± 0.022 | 0.7226 ± 0.0053 | 0.6413 ± 0.0052 | 0.745 ± 0.025 | 0.676 ± 0.0068 | 0.673 ± 0.014 | 0.728 ± 0.0094
30 | QHRAIKIEIKIN | 0.091 ± 0.0089 | 0.439 ± 0.024 | 0.666 ± 0.018 | 0.571 ± 0.048 | 0.672 ± 0.02 | 0.0613 ± 0.035 | 0.0582 ± 0.013 | 0.0578 ± 0.011
